Experimental data as given in patent US6861578B1, “Method for plant protection against insects or nematodes by transformation with a nucleic acid encoding equistatin” (Plant Research International B.V., priority 1997, dated 2005).

Experiments:
thrips protease activity = experiment: Protease activity of adult western flower thrips extract, FITC-hemoglobin; assay type: biochemical, Frankliniella occidentalis; set-up: inhibition of protease activity: concentration or dose not given beside the values
Procedure: (§1) Adult western flower thrips (Frankliniella occidentalis) and leafmirer flies (Liriomyza trifolii) adult were harvested from a culture maintained on chrysanthemum plants and complete thrips and flies were homogenized in extraction on buffer (200 mM β-alanine-HCl, pH 3.5) in a volume of 5 times the weight of the insects. The buffer pH was at the previously determined pH optimum of protease activity towards hemoglobin. Final instar Colorado potato beetle larvae maintained on potato plants as described in example 5 were checked for gut aspartic protease activity by preparing a total gut extract in pH 3 buffer which is optimal for Colorado potato beetle aspartic proteases (200 mM glycine, pH 3). Guts were homogenized in 100 μl buffer per gut. Third instar western corn rootworm larvae maintained on corn roots were used to remove the guts. Ten guts were homogenized in 100 μl water and spinned twice to remove insoluble material. Two types of buffers were used in the enzymatic assay. One with a pH presumably favoring cysteine proteases (50 mM MES, pH 6.5; 0.6 mg/ml L-cysteine) and one for detecting aspartic proteases (200 mM glycine, pH 3). Supernatants were stored at −20° C.
(§2) 2 μl gut extract was combined with 2 μl inhibitor (2 mM pepstatin in methanol, 4 mM E64 in water, 2 mg/ml recombinant equistatin in water. The concentration of the other proteinaceous inhibitors was not known exactly). Appropriate buffers were added to a final volume of 100 μl. After 15′ preincubation 20 μl substrate (5 mg/ml FITC-hemoglobin) was added and incubated for 30-45 min at 37 C.
(§3) Reaction was stopped by the addition of 100 μl 10% TCA. Tubes were centrifuged and 100 μl supernatant mixed with 100 μl 10 N NaOH was measured on a fluorimeter for the extent of hemoglobin hydrolysis. Measurements were done in duplicate on one (thrips, leafminer and western corn rootworm), or three (Colorado potato beetle) different gut extracts and varied by a maximum of +/−5%.

[1] = tested on: Colorado potato beetle larvae; experiment: Toxicity of equistatin painted on potato leaves towards Colorado potato beetle larvae; assay type: in vivo, Leptinotarsa decemlineata
Procedure: Potato tubers of cultivar Surprise (Solanum tuberosum) were sprouted. Sprouted tubers were planted in 1 l pots and grown for 3-4 weeks at a 22/18° C., 16/8 hr day night rhythm. Plants 10-15 cm high were placed in glass jars together with a paper wick on which 2 ul methyl jasmonate was pipeted. Jars were sealed immediately with parafilm and placed in a climate chamber of 30° C. with continuous light. Control plants were placed in a chamber of 25° C. with a 16-8 hr day night rhythm. After one day at 30° C. plants were taken from the jars and placed in the same chamber as the control. Plants were used on day 3. Freshly treated plants were used for each subsequent day of feeding. […] The top meristems were removed from the plants and painted on both sides with a 175 μM solution of recombinant equistatin in 0.3% agar obtained by mixing 1:1 a stock solution of 350 μM equistatin with 0.6% water agar. Controls were painted with 0.3% water agar. The agar solution was applied at a concentration of 30 μl/cm2.
The final concentration on the leaf was estimated to be 70 μM which is equivalent to 1.4 mg/g leaf. Painted leaves were placed in a tube containing 0.4% agar and out on top of a filterpaper inside a petridish. 21-26 newly hatched Colorado potato beetle larvae were placed on the leaves and the petridish was put in an incubator set at 28° C. Everyday fresh painted leaves replaced the old ones.

[2] = tested on: Colorado potato beetle proteases; experiment: Protease activity of Colorado potato beetle larval gut extract at pH 3, FITC-hemoglobin; assay type: biochemical, Leptinotarsa decemlineata; set-up: inhibition of total protease activity / increase of inhibition by addition of equistatin to E64 / increase of inhibition by addition of equistatin to pepstatin: concentration or dose not given beside the values
Procedure: as §1, §2, §3

thrips females = experiment: Oviposition rate of thrips females in Murai cages; assay type: in vivo, Frankliniella occidentalis
Procedure: A sample of 142 μM recombinant equistatin purified as described in example 4 was assayed for activity towards thrips. Sample was acidified with HCl to pH 3 to stabilize the equistatin protein. Controls contained acidified water or 2.5 mg/ml BSA dissolved in acidified water. The oviposition rate of thrips females was assayed using so-called Murai cages. Briefly, perspex tubes closed on side with a fine gauze were inoculated with 10 females and bee pollen. Tubes were closed with parafilm and 300 μl fluid was placed on top of the parafilm. A second layer of parafilm enclosed the fluid. Pollen and sample fluid were replaced every day for two days. Eggs deposited in the liquid sample were counted on day 2.

[3] = recombinant equistatin on MeJa treated plants
[4] = recombinant equistatin on control plants
[5] = recombinant equistatin on methyl jasmonate (MeJa) treated plants

B1: equistatin: cysteine/aspartic protease inhibitor from sea anemone Actinia equina with three type I repeated thyroglobulin domains; purified or recombinant from E. coli (protein)
chain: SLTKCQQLQASANSGLIGTYVPQCKETGEFEEKQCWGSTGYCWCVDEDGKEILGTKIRGSPDCSRRKAALTLCQMMQAIIVNVPGWCGPPSCKADGSFDEVQCCASNGECYCVDKKGKELEGTRQQGRPTCERHLSECEEARIKAHSNSLRVEMFVPECLEDGSYNPVQCWPSTGYCWCVDEGGVKVPGSDVRFKRPTC
modifications: left off: large carriers; small tags and cut ends
notes: purified or recombinant from E. coli
Thrips protease activity; thrips pH 3.5, equistatin purified from sea anemone
  residual protease activity: 5%
Thrips protease activity; thrips, pH 3.5
  inhibition of protease activity: 95%
[1]; [3]
  percent mortality, day 1: 0%
  percent mortality, day 2: 23%
  percent mortality, day 3: 77%
  percent mortality, day 4: 92%
[1]; [4]
  percent mortality, day 1: 0%
  percent mortality, day 2: 10%
  Larval weight, day 3: 0.5 mg/larvae
  percent mortality, day 3: 52%
  Larval weight, day 4: 0.7 mg/larvae
  percent mortality, day 4: 76%
[1]; [5]
  Larval weight, day 3: n.g.
  Larval weight, day 4: n.g.
[2]; Colorado potato beetle, pH3
  increase of inhibition by addition of equistatin to E64: 42%
  increase of inhibition by addition of equistatin to pepstatin: 12%
  inhibition of both aspartic and cysteine protease activity: more than 50%
  inhibition of total protease activity: 62%
[2]; colorado potato beetle pH 3, recombinant equistatin
  residual protease activity: 36%
Thrips females; 142 μM recombinant equistatin, pH 3, eggs counted on day 2
  Oviposition rate, eggs per female per day: 0.3 eggs per female per day
Thrips females; relative to BSA diet = 100%
  Oviposition rate, relative percentage: 17%
